In doi:10.1101/2024.05.16.594462v2:

Substrate: OC[C@H]1O[C@@H](n2cnc3c(O)ncnc32)[C@H](O)[C@@H]1O
Test: purified protein
Conditions: […] hPNP

B1: human purine nucleoside phosphorylase (hPNP) (Homo sapiens) (protein)
chain: MENGYTYEDYKNTAEWLLSHTKHRPQVAIICGSGLGGLTDKLTQAQIFDYGEIPNFPRSTVPGHAGRLVFGFLNGRACVMMQGRFHMYEGYPLWKVTFPVRVFHLLGVDTLVVTNAAGGLNPKFEVGDIMLIRDHINLPGFSGQNPLRGPNDERFGDRFPAMSDAYDRTMRQRALSTWKQMGEQRELQEGTYVMVAGPSFETVAECRVLQKLGADAVGMSTVPEVIVARHCGLRVFGFSLITNKVIMDYESLEKANHEEVLAAGKQAAQKLEQFVSILMASIPLPDKAS
Km: 68.92 ± 4.08 µM
